# According to patent US20060253917A1 (published 2006):
# T1: OsPN23053 aa 1-180 (Oryza sativa, UniProt Q8W0H5 141-320)
# T1 construct: prey, AD fusion; also called Novel Protein 23053, Fragment, Similar to Arabidopsis Putative Na+-Dependent Inorganic Phosphate Cotransporter
# T1 sequence: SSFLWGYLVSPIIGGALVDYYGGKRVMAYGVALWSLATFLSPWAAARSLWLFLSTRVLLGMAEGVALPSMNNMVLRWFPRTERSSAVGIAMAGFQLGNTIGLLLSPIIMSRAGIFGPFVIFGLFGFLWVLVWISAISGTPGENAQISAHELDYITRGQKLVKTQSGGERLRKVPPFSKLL
# T2: OsEXPB2 aa 80-218 (Oryza sativa, UniProt O24230 80-218)
# T2 construct: prey, AD fusion; also called PN19902
# T2 sequence: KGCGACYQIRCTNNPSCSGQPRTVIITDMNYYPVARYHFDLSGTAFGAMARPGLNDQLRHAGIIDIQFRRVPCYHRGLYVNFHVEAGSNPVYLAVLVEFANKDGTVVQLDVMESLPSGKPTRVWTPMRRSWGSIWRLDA
# T3: Os003181-3684 aa 58-140 (Oryza sativa)
# T3 construct: bait, Gal4 DBD fusion; also called PN21036; Hypothetical Protein 003181-3684
# T3 chain: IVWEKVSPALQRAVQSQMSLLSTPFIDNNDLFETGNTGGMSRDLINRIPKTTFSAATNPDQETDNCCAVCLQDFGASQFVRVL
# T4: OsEXPB2 aa 80-207 (Oryza sativa, UniProt O24230 80-207)
# T4 construct: prey, AD fusion; also called PN19902; Beta-Expansin EXPB2
# T4 sequence: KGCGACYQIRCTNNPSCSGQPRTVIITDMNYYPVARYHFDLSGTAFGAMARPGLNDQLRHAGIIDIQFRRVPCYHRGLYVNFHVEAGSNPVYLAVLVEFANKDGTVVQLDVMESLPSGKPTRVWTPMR
# T5: Os005792-3529 aa 1-55 (Oryza sativa)
# T5 construct: bait, Gal4 DBD fusion; also called PN20080; Hypothetical Protein 005792-3529 Similar to O. sativa Receptor Kinase
# T5 chain: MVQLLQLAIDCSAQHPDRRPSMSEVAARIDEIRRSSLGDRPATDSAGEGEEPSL
# T6: OsPN23485 aa 90-243 (Oryza sativa, UniProt Q7XPL2 165-318)
# T6 construct: prey, AD fusion; also called Novel Protein PN23485, Similar to Hordeum vulgare Coproporphyrinogen III Oxidase, chloroplast precursor
# T6 sequence: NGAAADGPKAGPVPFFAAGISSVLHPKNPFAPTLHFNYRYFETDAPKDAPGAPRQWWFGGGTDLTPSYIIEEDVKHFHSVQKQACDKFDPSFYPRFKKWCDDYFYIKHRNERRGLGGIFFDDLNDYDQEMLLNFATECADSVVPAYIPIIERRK
# T7: OsHOS59 aa 1-206 (Oryza sativa, UniProt Q94LW4 113-311)
# T7 construct: bait, Gal4 DBD fusion; also called PN20559
# T7 sequence: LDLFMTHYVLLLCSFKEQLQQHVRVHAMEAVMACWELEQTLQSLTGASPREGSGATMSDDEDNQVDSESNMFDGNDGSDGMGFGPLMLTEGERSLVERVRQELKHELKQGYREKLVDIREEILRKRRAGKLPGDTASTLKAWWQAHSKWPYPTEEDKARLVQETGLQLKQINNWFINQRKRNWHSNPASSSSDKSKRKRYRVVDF
# B1: Os006819-2510 aa 1-273 (other)
# chain: MAFRLSNSLLGILNAVTFLLSVPVLGGGIWLATRADGTECERYFSAPVIAFGVFLLLVSLAGLVGACCRVNCLLWFYLVAMFVLIVVLFCFTVFAFVVTNKGAGEAVSGRGYKEYRLGDYSNWLQKRMENSKNWNRIRSCLQDSKVCKKLQDKNWDRTQFFKADLSPLESGCCKPPSSCNFLYVSGTNWTKVPTNSSDPDCNTWVDDGTQLCYNCQSCKAGAVATLKRDWKRVAVVCIVFLVFIVIVYSLGCCAFRNNRRDNRGAYRGAAWKG
# notes: bait, Gal4 DBD fusion; also called PN20462
# B2: Os006819-2510 aa 1-150 (other)
# chain: MAFRLSNSLLGILNAVTFLLSVPVLGGGIWLATRADGTECERYFSAPVIAFGVFLLLVSLAGLVGACCRVNCLLWFYLVAMFVLIVVLFCFTVFAFVVTNKGAGEAVSGRGYKEYRLGDYSNWLQKRMENSKNWNRIRSCLQDSKVCKKL
# notes: bait, Gal4 DBD fusion; also called PN20462; Hypothetical Protein 006819-2510, Similar to Senescence-Related Protein 5 from Hemerocallis Hybrid Cultivar
# B3: OsHOS59 aa 1-100 (other)
# chain: LDLFMTHYVLLLCSFKEQLQQHVRVHAMEAVMACWELEQTLQSLTGASPREGSGATMSDDEDNQVDSESNMFDGNDGSDGMGFGPLMLTEGERSLVERVR
# notes: bait, Gal4 DBD fusion; also called PN20559; O. sativa Homeobox Protein HOS59, Fragment
# Columns and labels:
# OsPN23053 aa 1-180 = biological target: T1, OsPN23053 aa 1-180; test: Y2H; input trait library
# Outline: (§1)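 Myriad Genetics Inc. (Salt Lake City, Utah) supplied the automated, high-throughput yeast two-hybrid assay used to detect protein-protein interactions. A bait clone encoding a defined amino-acid fragment of a rice protein was screened against a rice prey library, either the input trait or the output trait library. To identify the interacting proteins, prey clones were retrieved and their encoding sequences were compared against databases by BLAST.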
# OsEXPB2 aa 80-218 = biological target: T2, OsEXPB2 aa 80-218; test: Y2H; input trait library
# Outline: as §1
# Os003181-3684 aa 58-140 = biological target: T3, Os003181-3684 aa 58-140; test: Y2H; output trait library
# Outline: as §1
# OsEXPB2 aa 80-207 = biological target: T4, OsEXPB2 aa 80-207; test: Y2H; input trait library
# Outline: as §1
# Os006819-2510 aa 1-150 [1] = biological target: B2; test: Y2H; input trait library
# Outline: as §1
# Os005792-3529 aa 1-55 = biological target: T5, Os005792-3529 aa 1-55; test: Y2H; output trait library
# Outline: as §1
# OsPN23485 aa 90-243 = biological target: T6, OsPN23485 aa 90-243; test: Y2H; output trait library
# Outline: as §1
# Os006819-2510 aa 1-273 = biological target: B1; test: Y2H; output trait library
# Outline: as §1
# OsRBCL aa 287-462 = biological target: T8, OsRBCL aa 287-462 (Oryza sativa, UniProt P0C510 287-462); test: Y2H; input trait library
# T8 construct: prey, AD fusion; also called PN23426; O. sativa Chloroplast Ribulose Bisphosphate Carboxylase, Large Chain
# Outline: as §1
# OsAAK01712 aa 90-221 = biological target: T9, OsAAK01712 aa 90-221 (Oryza sativa, UniProt Q7Y0Y8 90-221); test: Y2H; output trait library
# T9 construct: prey, AD fusion; also called PN24059; O. sativa Histone Deacetylase HD1
# Outline: as §1
# Os000221-3976 aa 123-238 = biological target: T10, Os000221-3976 aa 123-238 (Oryza sativa, UniProt Q07078 342-457); test: Y2H; input trait library
# T10 construct: prey, AD fusion; also called PN23169
# Outline: as §1
# OsE2F2 (367) aa 1-368 = biological target: T11, OsE2F2 (367) aa 1-368 (Oryza sativa); test: Y2H; input trait library
# T11 construct: bait, Gal4 DBD fusion; also called PN21003; E2F2 Homolog, Alt
# Outline: as §1
# Os006819-2510 aa 1-150 [2] = biological target: B2; test: Y2H; output trait library
# Outline: as §1
# OsHOS59 aa 1-100 = biological target: B3; test: Y2H; input trait library
# Outline: as §1
# OsHOS59 aa 1-206 = biological target: T7, OsHOS59 aa 1-206; test: Y2H; input trait library
# Outline: as §1
# T9 sequence (Q7Y0Y8 90-221): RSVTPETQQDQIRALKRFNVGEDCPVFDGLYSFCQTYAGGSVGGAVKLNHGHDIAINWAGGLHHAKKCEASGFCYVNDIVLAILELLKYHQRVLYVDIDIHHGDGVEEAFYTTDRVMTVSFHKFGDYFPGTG
# T11 sequence (chain, as listed by the source limits assumed): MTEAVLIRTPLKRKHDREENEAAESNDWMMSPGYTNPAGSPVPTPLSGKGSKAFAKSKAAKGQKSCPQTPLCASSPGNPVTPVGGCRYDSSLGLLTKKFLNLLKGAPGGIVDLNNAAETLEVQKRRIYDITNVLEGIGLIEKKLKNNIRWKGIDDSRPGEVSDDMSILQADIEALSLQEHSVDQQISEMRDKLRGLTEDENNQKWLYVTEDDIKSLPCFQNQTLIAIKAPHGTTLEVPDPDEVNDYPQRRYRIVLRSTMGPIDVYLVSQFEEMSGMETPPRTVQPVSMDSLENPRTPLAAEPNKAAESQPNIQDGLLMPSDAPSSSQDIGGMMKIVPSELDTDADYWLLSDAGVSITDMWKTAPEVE
# T8 sequence (P0C510 287-462): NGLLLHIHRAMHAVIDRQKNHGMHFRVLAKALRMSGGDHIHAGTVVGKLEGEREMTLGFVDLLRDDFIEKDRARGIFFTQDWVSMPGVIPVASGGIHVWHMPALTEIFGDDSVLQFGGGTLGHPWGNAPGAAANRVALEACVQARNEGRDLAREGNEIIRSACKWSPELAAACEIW
# T10 sequence (Q07078 342-457): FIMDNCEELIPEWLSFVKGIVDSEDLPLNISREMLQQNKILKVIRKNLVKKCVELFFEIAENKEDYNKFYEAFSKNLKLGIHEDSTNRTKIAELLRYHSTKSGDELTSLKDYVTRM
binder,measurement,setting,value
"OsDAD1 aa 30-115 (other, bait, Gal4 DBD fusion; also called PN20251; O. sativa Defender Against Apoptotic Death 1) DLYVVFAVATALIQVVYMGIVGSFPFNSFLSGVLSCIGTAVLAVCLRIQVNKDNKEFKDLPPERAFADFVLCNLVLHLVIMNFLG",binding result,OsPN23053 aa 1-180,binds
same,binding result,OsEXPB2 aa 80-218,binds
"OsAAD27557 aa 1-149 (other, prey, AD fusion; also called PN22896) MDSTKQDFQPRTFSIKLWPPSESTRLMLVERMTKNLSTESIFSRKYGLLGKEEAHDNAKRIEEVCFASADEHFKEEPDGDGSSAVQLYAKETSKLMLEVLKRGPRTTVEPEVPVADTPLEPADSVFDISGGKRAFIEADEAKELLSPLI",binding result,Os003181-3684 aa 58-140,binds
"OsDAD1 aa 1-115 (other, bait, Gal4 DBD fusion; also called PN20251) MPRATSDAKLLIQSLGKAYAATPTNLKIIDLYVVFAVATALIQVVYMGIVGSFPFNSFLSGVLSCIGTAVLAVCLRIQVNKDNKEFKDLPPERAFADFVLCNLVLHLVIMNFLG",binding result,OsEXPB2 aa 80-207,binds
"OsPN29037 aa 73-165 (other, prey, AD fusion; also called Novel Protein PN29037) VVFDKDGVLEQIGEGKGYVDMSTVDAATSCKISEAIKQKGGAFVEAPVSGSKKPAEDGQLVILAAGDKVLYDDMVPAFDVLGKKSFFLGEIGN",binding result,Os006819-2510 aa 1-150 [1],binds
"OsPN23829 aa 3-220 (other, prey, AD fusion) LSVEKTSSGREYKVKDLSQADFGRLEIELAEVEMPGLMACRAEFGPSQPFKGARISGSLHMTIQTAVLIETLTALGAEVRWCSCNIFSTQDHAAAAIARDSAAVFAWKGETLEEYWWCTERCLDWGVGGGPDLIVDDGGDATLLIHEGVKAEEEFEKSGKVPDPESTDNAEFKIVLTIIRDGLKSDPSKYRKMKERLVGVSEETTTGVKRLYQMQETG",binding result,Os005792-3529 aa 1-55,binds
B1,binding result,OsPN23485 aa 90-243,binds
"OsPN23226 aa 345-432 (other, prey, AD fusion; also called Novel Protein PN23226, Callose synthase) WFMSNQETSFVTIGQRVLANPLRVRFHYGHPDIFDRLFHLTRGGVSKASKIINLSEDIFAGFNSTLREGNVTHHEYMQVGKGRDVGLN",binding result,Os006819-2510 aa 1-273,binds
"OsGF14-c aa 1-150 (other, bait, Gal4 DBD fusion; also called PN12464; O. sativa 14-3-3 Protein Homolog GF14-c) MSREENVYMAKLAEQAERYEEMVEYMEKVAKTVDVEELTVEERNLLSVAYKNVIGARRASWRIVSSIEQKEEGRGNEEHVTLIKEYRGKIEAELSKICDGILKLLDSHLVPSSTAAESKVFYLKMKGDYHRYLAEFKTGAERKEAAESTM",binding result,OsRBCL aa 287-462,binds
B2,binding result,OsAAK01712 aa 90-221,binds
B3,binding result,Os000221-3976 aa 123-238,binds
"Os018989-4003 aa 69-294 (other, prey, AD fusion; also called PN21044) GGGGNAAEREEGGANRNGKKEKTGAQRITGWGLREFSKIVSKKVEAKGRTTYNEVADEIFAELKSITQNGLEFDEKNIRRRVYDAFNVLIAIRVIAKDKKEIKWMGLTNYRYEKIQKLEEVHKELITRIKNKKKLLQEIEKQFDDLQNITLRNQASQRPAESVNGILLPFLLIKTSRKARVEIEISEDSKFARFDFNGAPFTMHDDVSILEAIRRNKGRAGLSIHP",binding result,OsE2F2 (367) aa 1-368,binds
"OsPN23878 aa 685-888 (other, prey, AD fusion; also called Oryza sativa Putative Myosin (AAL31066.1)) IYEQGLVLQQLKCCGVLEVVRISRSGYPTRMTHQKFARRYGFLLLEDVASQDPLSVSVAILHQFNILPEMYQVGYTKLFFRTGQIGKLEDTRNRTLHGILRVQSCFRGHQARRHARERIRGVLALQSFIRGENARKMYSSLARKHRAAIILQRNLKCWLARRYFVNIRKASVVIQSGIRGCLVRRCAGNVDLLNVLREFESKKE",binding result,Os006819-2510 aa 1-150 [2],binds
"OsAAD27557 aa 7-142 (other, prey, AD fusion; also called PN22896) DFQPRTFSIKLWPPSESTRLMLVERMTKNLSTESIFSRKYGLLGKEEAHDNAKRIEEVCFASADEHFKEEPDGDGSSAVQLYAKETSKLMLEVLKRGPRTTVEPEVPVADTPLEPADSVFDISGGKRAFIEADEAK",binding result,OsHOS59 aa 1-100,binds
"OsPN23251 aa 112-291 (other, prey, AD fusion; also called Novel Protein PN23251) DMNLITDQDFTELVQKVPDDCLFTIVSDSCHSGGLLDKTKEQIGHSTKQNQAQQIKREERSDSGTGGFRSFLKETLKETVRDAFESRGVHIPHQSSRRNDDEDEEPHMGSSSHGGDRIKNRSLPLSTLIEMLKEKTGKDDIDVGSIRMTLFSLFGDDASPKIKKFMKVMLTKLQEGQHGG",binding result,OsHOS59 aa 1-206,binds
